Measured values: PMC12758282

Target: T1, RstA (Escherichia coli O157:H7 (EHEC; strain not given in the material)) (UniProt P52108)
T1 sequence: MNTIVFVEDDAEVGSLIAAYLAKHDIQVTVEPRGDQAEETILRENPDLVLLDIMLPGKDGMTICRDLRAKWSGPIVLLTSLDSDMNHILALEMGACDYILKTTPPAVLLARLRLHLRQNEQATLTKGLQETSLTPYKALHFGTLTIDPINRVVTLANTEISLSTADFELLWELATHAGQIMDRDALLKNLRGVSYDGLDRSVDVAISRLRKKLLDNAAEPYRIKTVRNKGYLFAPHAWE
Test: EMSA

With “GTTATCGCAGGGAGCCACACAGCGTGTGTTGGACGCGACTCAGCTTTACCTTGGTGAGATTGGTTATTCACCACTGTTAACGGCCGAAGAAGAAGTTTATTTTGCGCGTCGCGCACTGCGTGGAGATGTCGCCTCTCGCCGCCGGATGATCGAGAGTAACTTGCGTCTGGTGGTAAAA (double strand) [rpoS fragment]” the binding was “no binding”.
